Test results as given in patent US20240252670A1, “ANTIBODY DRUG CONJUGATE, PREPARATION METHOD THEREFOR AND APPLICATION THEREOF” (TSINGHUA UNIVERSITY, priority 2021, published 2024).

Target: PD-L1 on the surface of murine cells (MC38, B16, wild-type DC 2.4) (murine) (UniProt Q9EP73)
Assay: FACS on MC38 cells, FITC-labeled goat anti-human secondary antibody

Sequence of PD-L1 on the surface of murine cells (MC38, B16, wild-type DC 2.4) (murine) (Q9EP73 19-290): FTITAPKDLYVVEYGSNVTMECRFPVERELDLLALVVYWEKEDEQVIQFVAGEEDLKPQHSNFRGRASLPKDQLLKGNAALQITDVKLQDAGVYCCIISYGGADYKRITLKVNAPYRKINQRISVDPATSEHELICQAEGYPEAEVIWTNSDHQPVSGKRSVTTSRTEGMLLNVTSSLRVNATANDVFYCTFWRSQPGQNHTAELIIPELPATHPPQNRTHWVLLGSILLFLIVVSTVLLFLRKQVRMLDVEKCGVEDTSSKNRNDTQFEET

## isotype control IgG (antibody)
  MFI: 167
  shift rate of the FITC positive signal relative to the NC group: 1.7%
